Target: T1, Biotin-STn(DT*R)-20 (Homo sapiens, UniProt P15941)
T1 construct: Synthesis of MUC1 Tn20-Mer Glycopeptide; made in house; host or cells: chemical solid-phase synthesis
Test: Affinity of antibody, Biacore T100, Sensor Chip SA
Type: binding
Conditions: Biotin-STn(DT*R)-20 on Sensor Chip SA; read-out: dissociation constant KD
Description: Biotin-STn(DT*R)-20 was solid-phased on a Sensor Chip SA (manufactured by GE Healthcare), and a dissociation constant of 12D10 was analyzed using Biacore T100.

T1 sequence (P15941 136-155): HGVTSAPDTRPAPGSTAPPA

B1: 12D10: mouse monoclonal IgG2a anti-MUC1 antibody raised against STn(DT*R)-20-Cys-KLH; variable regions SEQ ID NOs 2 and 3 (protein)
chain 1: EVQLVESGGGLVQPGESLKLSCESNEYEFPSHDMSWVRKTPEKRLELVAAINSDGDNTYYPDTMERRFIISRDNSKKTLYLQMSSLNSADTALYYCARLTLRNWYFDVWGAGTTVTVSS
chain 2: DIVMSQSPSSLPVSVGEKVTMSCKSSQSLLYSTNQQNYLAWYQQKSGQSPKLLVYWASTRESGVPDRFTGSGSGTDFTLTISSLKAEDLAVYYCQQYYRYPPTFGAGTKLELNRA
Kd: 9.1 nM

Reference: patent publication US8883977B2, “MUC1 antibody” (Shionogi & Co., Ltd., priority 2010, dated 2014)
